± gives the standard deviation.
Experiment: protein stability index of a GFP-peptide fusion (GPS, HEK-293T) (PSI 1-6); higher = more stable
[1] = treatment: DMSO, c terminus: a fixed tail appended
[2] = treatment: MLN4924 1 uM, 8 h, c terminus: a fixed tail appended
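Further: 24-mer peptide tiles fused after GFP, lentivirally expressed, FACS-sorted into six equal bins by GFP/DsRed ratio, decoded by Illumina sequencing, PSI is the read-weighted mean bin number.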

Sequence | protein stability index [1] | protein stability index [2] | protein stability index (treatment: DMSO, c terminus: native) | protein stability index (treatment: MLN4924 1 uM, 8 h, c terminus: native)
ADTTTGSAAGPPLSEDDKLQGAAS [EHMT1] | 5.46 ± 0.23 | 5.51 ± 0.18 | – | –
QAMFDTLGIPKSTTSDIPHMLNQV [FAM98B] | 3.18 ± 0.23 | 3.23 ± 0.26 | – | –
LEEGDELQLAIPRENAQISLDGDV [TNFSF13B] | 5.43 ± 0.083 | 5.29 ± 0.12 | – | –
QLLTLRELEMIGFIENNVSKLSLL [TRIP13] | 2.51 ± 0.28 | 2.66 ± 0.52 | – | –
SLNLSTEFISSTKRPYAKELETVD [SERPINB5] | 3.69 ± 0.14 | 3.82 ± 0.21 | – | –
PDECGKTEFTRFLCSSPLEAETPP [ATE1] | 4.8 ± 0.071 | 4.88 ± 0.13 | – | –
PFTRRYYKEKFGITDLPRIDVSKR [EFHC1] | 3.01 ± 0.36 | 3.3 ± 0.095 | – | –
INCQLSDPSSTKPGTLLKTSPSPE [TRIM14] | 4.79 ± 0.3 | 4.88 ± 0.31 | – | –
VAAETGHTSTARLLLHRGAGKEAM [RIPK4] | 3.6 ± 0.28 | 3.46 ± 0.13 | – | –
KAVCGKCSSKRSSIPLMGFEFEVR [WDFY2] | 2.32 ± 0.12 | 2.71 ± 0.39 | – | –
NTLSVSYKKGRMMKDISNLEENDE [SLC6A17] | 4.91 ± 0.3 | 5.08 ± 0.23 | – | –
VPLCSCRMETPKSREITTLANNQC [EHMT1] | 2.62 ± 0.17 | 2.81 ± 0.24 | – | –
RTPEPLEEFPKREDQEGSPPETSL [MYBL2] | 5.4 ± 0.36 | 5.56 ± 0.23 | – | –
TATREEASTSLPTKPTQGASSASE [CLPTM1] | 5.47 ± 0.34 | 5.4 ± 0.46 | – | –
VVAILAAACLLQLDGLIQQCGETM [GMCL1] | 3.23 ± 0.42 | 2.92 ± 0.39 | – | –
ELVPHPETAPTTVDRTHALMKKIG [CRYL1] | 4.31 ± 0.23 | 4.48 ± 0.35 | – | –
TPLHIAAQNNCPAIMNALIEAGAH [FEM1A] | 3.07 ± 0.2 | 3.13 ± 0.23 | – | –
QEEEQAETPMAPVPLGPLGETYCE [TRIM15] | 5.4 ± 0.17 | 5.57 ± 0.16 | – | –
THRDRPSQQQPLRNQVVSSTNGEL [CSNK1G1] | 4.93 ± 0.33 | 4.71 ± 0.36 | – | –
QDLCCRAVVSCTPVHLVDKLPLPI [RAB40B] | 2.4 ± 0.27 | 2.09 ± 0.56 | – | –
VKKCLELFSELAEDKENYKKFYEA [HSP90AB1] | 2.54 ± 0.34 | 2.74 ± 0.33 | – | –
NDLDRIAQPNYIPTQQDVLRTRVK [GNAI1] | 4.81 ± 0.13 | 4.92 ± 0.15 | – | –
QYSSHHTAEKRKRLGELFNPYYDP [CHGB] | 3.13 ± 0.25 | 3.28 ± 0.2 | – | –

Sequence | protein stability index [1] | protein stability index [2] | protein stability index (treatment: DMSO, c terminus: native) | protein stability index (treatment: MLN4924 1 uM, 8 h, c terminus: native)
TMIRKLEGHHHDVVACDFSPDGAL [WSB1] | 3.25 ± 0.28 | 3.48 ± 0.37 | – | –
LNDQNLCIPASSSFVYGAVPIGAS [GAN] | 3.07 ± 0.16 | 3.13 ± 0.17 | – | –
DSEDFPQAAKQIKDGVTMAPAFRL [FSD1] | 4.24 ± 0.11 | 4.33 ± 0.28 | – | –
NDIPHSIPLEQGSSCNGPGQTTGH [FAN1] | 5.24 ± 0.18 | 5.23 ± 0.1 | – | –
WMPPPSRADSFKVSYQLADGGEPQ [TNXB] | 4.03 ± 0.44 | 4.23 ± 0.64 | – | –
AKGNTALHDCAESGSLEILQLLLG [FEM1A] | 2.41 ± 0.23 | 2.16 ± 0.26 | – | –
RVTNVGSLLLTPQENESLFTFLGK [WASL] | 2.84 ± 0.27 | 3.19 ± 0.27 | – | –
PLVTMDDAMERTVQSFRHLRRVK [NSDHL] | – | – | 3 ± 0.25 | 3.23 ± 0.18
PKAQSAMSPYLVPDTQALCHHLPV [SMG5] | 3.34 ± 0.2 | 3.38 ± 0.12 | – | –
ASAETLPAGFRVSTLGTLQPPPAP [PPFIA4] | 3.94 ± 0.35 | 4.06 ± 0.23 | – | –
ELPKPEVISQLEQGTELWVAERGT [ZNF8] | 4.76 ± 0.17 | 4.82 ± 0.66 | – | –
KIREKEEWIKLDYHRRHNPKTNED [IQUB] | 4.23 ± 0.28 | 4.74 ± 0.13 | – | –
CRPLLPSCTTRLCQEEQLRSHENK [PSD2] | 4 ± 0.13 | 3.88 ± 0.34 | – | –
VIFALCWFPLHLSRILKKTVYNEM [EDNRA] | 3 ± 0.64 | 2.92 ± 0.68 | – | –
SEFLKRFVEATRKWKVGIPSDPLV [ALDH8A1] | 2.53 ± 0.85 | 2.05 ± 0.2 | – | –
LDAVQVLSGVSQLLPKSRENYLNR [FCHO1] | 3.13 ± 0.22 | 3.25 ± 0.18 | – | –
GFTPDRLSSSCCHTVPDFHLSSPA [PLK2] | 3.02 ± 0.22 | 3.15 ± 0.16 | – | –
GSLKSVEVREPALRPAKRELRGAE [SPSB4] | 4.98 ± 0.37 | 5.03 ± 0.14 | – | –
GLCKQDGQLRVFGAGLLSSISELK [TPH1] | 2.05 ± 0.28 | 2.39 ± 0.4 | – | –
LKTADWRVFLFQAPSKEEMLSWIL [PSD2] | 2.16 ± 0.57 | 2.04 ± 0.38 | – | –
FATASAAVPVSTSKPSSDLLDLQP [SNAP91] | 4.01 ± 0.28 | 4.1 ± 0.41 | – | –
WEYPGSQGSPAVDKERFTTLVQDL [CHIT1] | 3.9 ± 0.25 | 3.89 ± 0.19 | – | –
ASVLLQAVLYPRFMGTISDVKTNV [CD207] | 2.76 ± 0.38 | 2.69 ± 0.41 | – | –

Sequence | protein stability index [1] | protein stability index [2] | protein stability index (treatment: DMSO, c terminus: native) | protein stability index (treatment: MLN4924 1 uM, 8 h, c terminus: native)
TLPKSLSLPTTAPSNSSSLTLSGI [MYBL2] | 3.87 ± 0.12 | 3.83 ± 0.28 | – | –
DCSEEYLERQLQAEFIESGQYRAN [TAF7L] | 4.09 ± 0.35 | 4.3 ± 0.12 | – | –
NVMTQSFGAVNLSSPSNMLPVRPQ [CLINT1] | 3.86 ± 0.2 | 3.99 ± 0.51 | – | –
KGKQPTSAENSVAKKEDKVPVKKQ [NANOGP8] | 5.37 ± 0.32 | 5.44 ± 0.14 | – | –
CCINSHCGWPRGKDAPCYESDTDI [DRICH1] | 2.94 ± 0.3 | 3.02 ± 0.29 | – | –
CMKIPTGQEYAAKIINTKKLSARD [CAMK2D] | 3.7 ± 0.69 | 3.83 ± 0.42 | – | –
KAFRSDSSFNFFVFFFIFFVQDVL [SCAMP3] | 3.36 ± 0.43 | 3.25 ± 0.17 | – | –
TKFQELQLAAGRHGDDLKNTKNEI [KRT71] | 4.12 ± 0.39 | 4.28 ± 0.13 | – | –
SWARQESLQERKQALYEYARRRFT [AUP1] | 3.8 ± 0.17 | 3.81 ± 0.12 | – | –
YVEIRTFEPRLLVQSIELQRPRFI [VPS39] | 2.33 ± 0.76 | 2.65 ± 0.7 | – | –
GAGIIVTEAGGVLMDVTGGPFDLM [IMPA1] | 2.28 ± 0.4 | 2.48 ± 0.39 | – | –
QLSPNKHFSLRVQSRANGVKYPEL [PCDHGA10] | 3 ± 0.18 | 3.02 ± 0.23 | – | –
QSSPSFAEKCLDFLVDMFNDEIEE [INTS4] | 2.87 ± 0.1 | 3.18 ± 0.2 | – | –
RDAGATPSAAGAPASAPGEPRQRR [ANKRD9] | 5.57 ± 0.27 | 5.59 ± 0.19 | – | –
TDEEEGLIWVVGPVLAVVFIICIV [PTPRD] | 2.1 ± 0.4 | 2.07 ± 0.46 | – | –
TPESTKPGPVCQPPVSQSRSLFSS [ANKRD40] | 4.46 ± 0.19 | 4.21 ± 0.21 | – | –
LAGMANHGSPQLGEGMFQHQTSVA [TBX5] | 3.83 ± 0.2 | 3.83 ± 0.13 | – | –
GLLQLDHRGLRCSWEGLAVLDSLL [RSAD1] | 2.31 ± 0.56 | 2.06 ± 0.31 | – | –
LRDPLTSLSHTELEAAEVILEHAH [FCHSD1] | 4.29 ± 0.25 | 4.44 ± 0.32 | – | –
NPNSSSGKGSGGNAGSYIPSYTSW [DLX1] | 3.44 ± 0.14 | 3.43 ± 0.4 | – | –
PDPDAWLRALGELLRRDLGVGTSM [FANCE] | 1.86 ± 0.28 | 1.9 ± 0.2 | – | –
QNQEYKMLLDIKTRLEQEIATYRS [KRT15] | 3.31 ± 0.18 | 3.46 ± 0.37 | – | –
EHVSRALCIHTGRELRCKVFPIKH [TRIB1] | 2.21 ± 0.13 | 2.61 ± 0.3 | – | –

Sequence | protein stability index [1] | protein stability index [2] | protein stability index (treatment: DMSO, c terminus: native) | protein stability index (treatment: MLN4924 1 uM, 8 h, c terminus: native)
WYQVRCLFQSPLFAKAGDTLSGTC [CARM1] | 2.77 ± 0.72 | 2.35 ± 0.53 | – | –
HFSFNVKFYPPDPAQLSEDITRYY [EPB41L3] | 2.21 ± 0.24 | 2.12 ± 0.12 | – | –
QALGEHLKLRQQVIATATVYFKRF [CCNC] | 2.54 ± 0.55 | 2.48 ± 0.42 | – | –
KLKNDTENHQPVSLSDLEIQASAG [ZNF75A] | 5.21 ± 0.32 | 5.15 ± 0.14 | – | –
SRASAARVGQLQEALNERHSIINA [LRRC45] | 4.01 ± 0.38 | 3.97 ± 0.19 | – | –
VDALKSDKKVRTIIIRSEVPGIFC [AUH] | 2.01 ± 0.38 | 2.35 ± 0.73 | – | –
EEEDREEEDENGLPRRRGLRKKKT [NEUROD6] | 5.53 ± 0.59 | 5.52 ± 0.37 | – | –
QVEIFSTNPDLYPVRRIDGLTDVS [IQUB] | 3.71 ± 0.29 | 3.68 ± 0.27 | – | –
CEVIFCVFIFYYVVEEILELHIHR [PKD2L1] | 3 ± 0.52 | 3.07 ± 0.11 | – | –
IENIQRVAAGVLCELAQDKEAAEA [CTNNB1] | 5.08 ± 0.11 | 5.1 ± 0.48 | – | –
LSRKLMQLQHEKAELEQHLEQEQE [CCDC6] | 5.27 ± 0.27 | 5.02 ± 0.2 | – | –
DRSVQRLLATRIAVYLMTFLIVTV [TMEM175] | 3.15 ± 0.3 | 3.31 ± 0.31 | – | –
GNNPNGREAKMICFKSVAKTPYDT [ELOA2] | 3.84 ± 0.43 | 3.93 ± 0.3 | – | –
SMWTRPQIKDFKEKIQQDADSVIT [ACBD3] | 3.88 ± 0.2 | 4.08 ± 0.42 | – | –
EPVIKVAAIDNGLAFPLKHPDSWR [PI4K2A] | 3.41 ± 0.28 | 3.02 ± 0.23 | – | –
IPIFNETGRFSFTLPYPVKIKVRF [HACD3] | 2.92 ± 1.2 | 2.77 ± 0.44 | – | –
AWLNEHRKNPYPTKGEKIMLAIIT [IRX6] | 2.7 ± 0.42 | 2.51 ± 0.41 | – | –
LALIDYLTQKRSQLVKKLNDSDHQ [VPS39] | 2.51 ± 0.14 | 2.77 ± 0.69 | – | –
NLIKSENYGKILVEKNEHCIENNI [R3HDM1] | 3.5 ± 0.5 | 3.49 ± 0.65 | – | –
NGRHKIPESQFPEFSTSLFSGSLE [SRPK2] | 3.66 ± 0.22 | 3.8 ± 0.19 | – | –
